In patent US20240417462A1:

Target: TIGIT on PHA-activated human peripheral blood mononuclear cells (PBMC) (human) (UniProt Q495A1)
Assay: cell-based or functional assay

Sequence of TIGIT on PHA-activated human peripheral blood mononuclear cells (PBMC) (human) (Q495A1 22-244): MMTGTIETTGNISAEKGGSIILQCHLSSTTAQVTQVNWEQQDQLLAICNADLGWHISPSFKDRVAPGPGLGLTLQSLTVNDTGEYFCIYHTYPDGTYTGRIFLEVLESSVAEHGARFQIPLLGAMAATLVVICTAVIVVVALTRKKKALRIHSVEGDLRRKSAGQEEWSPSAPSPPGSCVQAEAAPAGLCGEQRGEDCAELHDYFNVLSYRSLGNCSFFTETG

Tiragolumab (antibody)
IFNγ release, increase over no antibody: 16%
